In PMC7540478:

Legend:
purified protein [1] = substrate: O=P(O)(O)O[C@H]1O[C@H](CO)[C@@H](O)[C@H](O)[C@H]1O; test: purified protein; conditions: 2 M glycerol as acceptor, 50 mM MES pH 7.0, 30 °C
purified protein [2] = substrate: OC[C@H]1O[C@@](CO)(O[C@H]2O[C@H](CO)[C@@H](O)[C@H](O)[C@H]2O)[C@@H](O)[C@@H]1O; test: purified protein; conditions: 2 M glycerol as acceptor, 50 mM MES pH 7.0, 30 °C

B1: LmSucP (Leuconostoc mesenteroides) (protein)
chain: MEIQNKAMLITYADSLGKNLKDVHQVLKEDIGDAIGGVHLLPFFPSTGDRGFAPADYTRVDAAFGDWADVEALGEEYYLMFDFMINHISRESVMYQDFKKNHDDSKYKDFFIRWEKFWAKAGENRPTQADVDLIYKRKDKAPTQEITFDDGTTENLWNTFGEEQIDIDVNSAIAKEFIKTTLEDMVKHGANLIRLDAFAYAVKKVDTNDFFVEPEIWDTLNEVREILTPLKAEILPEIHEHYSIPKKINDHGYFTYDFALPMTTLYTLYSGKTNQLAKWLKMSPMKQFTTLDTHDGIGVVDARDILTDDEIDYASEQLYKVGANVKKTYSSASYNNLDIYQINSTYYSALGNDDAAYLLSRVFQVFAPGIPQIYYVGLLAGENDIALLESTKEGRNINRHYYTREEVKSEVKRPVVANLLKLLSWRNESPAFDLAGSITVDTPTDTTIVVTRQDENGQNKAVLTADAANKTFEIVENGQTVMSSDNLTQN
- Km (purified protein [1]): 12.5 ± 1.7 mM
- kcat (purified protein [1]): 36 ± 3 s⁻¹
- Km (purified protein [2]): 1.4 ± 0.1 mM
